Assay results as given in patent publication US20110236427.

How the values were obtained:
[1] = tested on: GST-NR2F6 fusion protein, full-length, wild-type
[2] = tested on: GST-NR2F6 fusion protein, full-length, S83A mutant
[3] = tested on: GST-NR2F6 fusion protein, full-length, S89A mutant
Chain of GST-NR2F6 fusion protein, full-length, S89A mutant (chain, as listed by the source S89A): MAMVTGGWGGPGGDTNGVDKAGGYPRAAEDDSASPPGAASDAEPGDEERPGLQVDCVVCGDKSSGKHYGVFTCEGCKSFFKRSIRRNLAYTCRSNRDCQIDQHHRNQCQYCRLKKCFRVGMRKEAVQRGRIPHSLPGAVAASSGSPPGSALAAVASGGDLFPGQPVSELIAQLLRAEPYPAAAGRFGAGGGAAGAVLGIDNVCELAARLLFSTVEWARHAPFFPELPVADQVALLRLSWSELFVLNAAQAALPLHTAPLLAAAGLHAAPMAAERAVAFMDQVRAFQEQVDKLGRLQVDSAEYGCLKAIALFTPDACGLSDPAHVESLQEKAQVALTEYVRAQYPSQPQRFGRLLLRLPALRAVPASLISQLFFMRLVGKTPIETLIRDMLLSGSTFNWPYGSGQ

Chain of recombinant PKCtheta (Q04759 whole entry): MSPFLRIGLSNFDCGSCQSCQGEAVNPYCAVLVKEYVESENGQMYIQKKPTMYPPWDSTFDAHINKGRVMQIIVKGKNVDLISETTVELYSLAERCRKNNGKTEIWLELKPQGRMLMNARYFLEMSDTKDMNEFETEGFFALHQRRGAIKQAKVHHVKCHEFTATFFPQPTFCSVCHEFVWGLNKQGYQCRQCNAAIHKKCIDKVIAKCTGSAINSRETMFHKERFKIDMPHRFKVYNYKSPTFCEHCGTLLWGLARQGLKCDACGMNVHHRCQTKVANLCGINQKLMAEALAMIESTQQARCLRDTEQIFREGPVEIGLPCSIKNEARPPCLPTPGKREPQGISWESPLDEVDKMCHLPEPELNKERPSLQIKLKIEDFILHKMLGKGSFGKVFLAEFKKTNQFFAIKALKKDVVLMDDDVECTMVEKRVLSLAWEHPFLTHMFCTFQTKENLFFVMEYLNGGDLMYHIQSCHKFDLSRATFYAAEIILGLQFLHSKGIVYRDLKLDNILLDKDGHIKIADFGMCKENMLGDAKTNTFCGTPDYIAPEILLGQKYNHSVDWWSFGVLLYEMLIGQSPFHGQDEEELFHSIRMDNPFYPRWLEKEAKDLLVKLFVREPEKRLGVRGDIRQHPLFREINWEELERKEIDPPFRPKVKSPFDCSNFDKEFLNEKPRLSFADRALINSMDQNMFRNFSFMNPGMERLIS
Chain of GST-NR2F6 fusion protein, full-length, wild-type (chain, as listed by the source): as the sequence (chain, as listed by the source S89A) above, with A89S counted along it
Chain of GST-NR2F6 fusion protein, full-length, S83A mutant (chain, as listed by the source S83A): as the sequence (chain, as listed by the source S89A) above, with S83A, A89S counted along it

Substance | phosphorylation (32P incorporation), in vitro protein kinase assay [1] | phosphorylation (32P incorporation), in vitro protein kinase assay [2] | phosphorylation (32P incorporation), in vitro protein kinase assay [3]
Protein kinase A (PKA) | (but not PKCzeta or PKA) |  | 
recombinant PKCalpha | PKCalpha, delta and theta (but not PKCzeta or PKA) were able to phosphorylate recombinant NR2F6 in vitro | This phosphorylation was lost after the predicted phosphorylation site at Ser-83 (but not at Ser-89) was mutated in the full-length NR2F6 protein | (but not at Ser-89)
recombinant PKCdelta | PKCalpha, delta and theta (but not PKCzeta or PKA) were able to phosphorylate recombinant NR2F6 in vitro | This phosphorylation was lost after the predicted phosphorylation site at Ser-83 (but not at Ser-89) was mutated in the full-length NR2F6 protein | (but not at Ser-89)
recombinant PKCtheta | PKCalpha, delta and theta (but not PKCzeta or PKA) were able to phosphorylate recombinant NR2F6 in vitro | This phosphorylation was lost after the predicted phosphorylation site at Ser-83 (but not at Ser-89) was mutated in the full-length NR2F6 protein | (but not at Ser-89)
